The values below come from patent publication US20230212319A1, “NOVEL ANTIGEN BINDING DOMAINS AND SYNTHETIC ANTIGEN RECEPTORS INCORPORATING THE SAME” (University of Southern California, priority 2020, published 2023).

One assay deals with RS;411. Description: JNG assay, co-culture with RS;411 cells. The class given is cell-based. The note with it: co-culture with RS411. As for the experimental part:
Cellular supernatant is collected and assayed for the induction of cytokines (e.g., IL2).
JNG (Jurkat cells expressing EGFP under an NFAT promoter) were infected with lentiviral vectors encoding different single chain and multi-chain SARs by spinfection in the presence of 8 µg/ml of Polybrene® (Sigma, Catalog no. H9268). The Jurkat-NFAT-GFP cells are engineered in such a way that the IL-2 promoter, which carries NFAT binding sites, is cloned upstream of the GFP gene. These cells have been used to study signaling via TCR and CAR. The different SARs were stably expressed in Jurkat NFAT-GFP cells by lentiviral mediated gene transfer, followed by selection with puromycin or blasticidin. No drug selection was used in case the construct lacked an antibiotic resistance gene. The SAR-expressing Jurkat-NFAT-GFP cells were cocultured with the target cells at E:T ratio of approximately 1:2 for approximately 4 hours to 18 hours. When the interaction between SIRs and their target antigen results in activation of the NFAT pathway, GFP expression is induced. […] GFP expression was monitored by FACS analysis. The Jurkat-NFAT-GFP (parental) cells were used as control. The structure of different constructs can be determined based on their names. […] The sequence of the other constructs in the table can be similarly determined from their names and by referring to the different Tables of this disclosure that provide the names and SEQ ID NO of the different modules. Alternatively, the composition and modular architecture of the different SAR constructs can be determined from their sequences by bioinformatics tools, including using nucleic acid and amino acids homology searches. A SAR is considered positive in the assay in case the SAR expressing Jurkat-NFAT-GFP cells show greater % GFP positive cells when cultured with the target cell line as compared to parental Jurkat-NFAT-GFP cells. […] In general, the number +/-, +, 2+, 3+, 4+, 5+ refer to approximately 5%, 10%, 20%, 30%, 40% and 50% GFP positive cells. The % of GFP induction in the above assay is dependent not only the relative strength of the SAR but also, among other factors, on the relative level of expression of the SAR in the JNG cells and the relative level of expression of the target antigen in the target cell line. To control for the difference in gene transduction efficiency of the different SAR constructs, the experiment was conducted with JNG cells transduced with SAR constructs co-expressing a drug resistance gene (e.g., puromycin or PAC) followed by drug selection to generate a stable population of SAR-expressing cells. It is to be noted that the drug resistance gene (e.g., PAC) in the SAR constructs is optional and in vivo studies were conducted with SAR constructs lacking the PAC gene.

The next assay relates to RAJI cells. The experiment in a line: JNG assay, co-culture with RAJI cells. As to conditions: JNG cells expressing construct, co-culture with Raji. The class given is cell-based. The procedure, abridged: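 Jurkat-NFAT-GFP (JNG) cells stably expressing SAR constructs via lentiviral transduction and puromycin/blasticidin selection were cocultured with target cells at E:T ~1:2 for ~4–18 h. NFAT-driven GFP was measured by FACS versus parental JNG cells; scores +/- to 5+ denote ~5–50% GFP-positive cells.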

B1: 22141 (protein)
chain: MALPVTALLLPLALLLHAARPACEVQLLESGGGLIQPGGSLRLSCAASGFTFSSHAMTWVRQAPGKGLEWVSAISGSGDYTHYADSVKGRFTISRDNSKNTVYLQMNSLRAEDSAVYYCAKDEDGGSLLGHRGQGTLVTVSSGTGGGGSGGGGSGGGGSEFDIQMTQSPSSLSASVGDRVTITCKASDHINNWLAWYQQKPGQAPKLLIYGATTLETGVPSRFSGSGSGTDYTLTISSLQPEDFATYYCQQSWNTPWTFGQGTKLEIKRLEGQPKANPTVTLFPPSSEELQANKATLVCLISDFYPGAVTVAWKADGSPVKAGVETTKPSKQSNNKYAASSYLSLTPEQWKSHRSYSCQVTHEGSTVEKTVAPTECSPIKTDVITMDPKDNCSKDANDTLLLQLTNTSAYYMYLLLLLKSVVYFAIITCCLLRRTAFCCNGEKSRAKRSGSGATNFSLLKQAGDVEENPGPTSATMDWIWRILFLVGAATGAHSGPQVQLQESGGGLAQAGGSLRLSCAASGRTFSMGWFRQAPGKEREFVAAITYSGGSPYYASSVRGRFTISRDNAKNTVYLQMNSLKPEDTAVYYCAANPTYGSDWNAENWGQGTQVTVSSGSGGGGSGGGGSGGGGSFEQVQLQQPGAELVKPGASVKMSCKASGYAFSSYWINWMKQKPGQGLEWIGQIYPGDGDTNYNGKFKGRATLTADTSSSTAYMQLSSLTSEDSAVYFCARSITTVVGCAMDYWGQGTSVTVSSTRASTKGPSVFPLAPSSKSTSGGTAALGCLVKDYFPEPVTVSWNSGALTSGVHTFPAVLQSSGLYSLSSVVTVPSSSLGTQTYICNVNHKPSNTKVDKRVEPKSCEVKTDSTDHVKPKETENTKQPSKSCHKPKAIVHTEKVNMMSLTVLGLRMLFAKTVAVNFLLTAKLFFLRAKRSGSGVKQTLNFDLLKLAGDVESNPGPSRAHMTEYKPTVRLATRDDVPRAVRTLAAAFADYPATRHTVDPDRHIERVTELQELFLTRVGLDIGKVWVADDGAAVAVWTTPESVEAGAVFAEIGPRMAELSGSRLAAQQQMEGLLAPHRPKEPAWFLATVGVSPDHQGKGLGSAVVLPGVEAAERAGVPAFLETSAPRNLPFYERLGFTVTADVEVPEGPRTWCMTRKPGA
Regarding B1, in the assay on RS;411, the “NFAT-GFP ASSAY: RS411” value is 4+ (refer to approximately 5%, 10%, 20%, 30%, 40% and 50% GFP positive cells). Besides, the “NFAT-GFP ASSAY: Raji” value in the assay on RAJI cells was 4+ (refer to approximately 5%, 10%, 20%, 30%, 40% and 50% GFP positive cells).

B2: 22106 (protein)
chain: MALPVTALLLPLALLLHAARPDIQMTQSPSSLSASVGDRVTITCKASDHINNWLAWYQQKPGQAPKLLIYGATTLETGVPSRFSGSGSGTDYTLTISSLQPEDFATYYCQQSWNTPWTFGQGTKLEIKRLEDLKNVFPPEVAVFEPSKAEIAHTQKATLVCLATGFYPDHVELSWWVNGKEVHSGVCTDPQPLKEQPALNDSRYCLSSRLRVSATFWQNPRNHFRCQVQFYGLSENDEWTQDRAKPVTQIVSAEAWGRADCGITSASYHQGVLSATILYEILLGKATLYAVLVSALVLMAMVKRKDSRGRAKRSGSGATNFSLLKQAGDVEENPGPTSATMDWIWRILFLVGAATGAHSGPQVQLQESGGGLAQAGGSLRLSCAASGRTFSMGWFRQAPGKEREFVAAITYSGGSPYYASSVRGRFTISRDNAKNTVYLQMNSLKPEDTAVYYCAANPTYGSDWNAENWGQGTQVTVSSGSGGGGSGGGGSGGGGSFEQVQLQQPGAELVKPGASVKMSCKASGYAFSSYWINWMKQKPGQGLEWIGQIYPGDGDTNYNGKFKGRATLTADTSSSTAYMQLSSLTSEDSAVYFCARSITTVVGCAMDYWGQGTSVTVSSTRIQNPDPAVYQLRDSKSSDKSVCLFTDFDSQTNVSQSKDSDVYITDKCVLDMRSMDFKSNSAVAWSNKSDFACANAFNNSIIPEDTFFPSSDVPCDVKLVEKSFETDTNLNFQNLSVIGFRILLLKVAGFNLLMTLRLWSSRAKRSGSGVKQTLNFDLLKLAGDVESNPGPSRGHMTEYKPTVRLATRDDVPRAVRTLAAAFADYPATRHTVDPDRHIERVTELQELFLTRVGLDIGKVWVADDGAAVAVWTTPESVEAGAVFAEIGPRMAELSGSRLAAQQQMEGLLAPHRPKEPAWFLATVGVSPDHQGKGLGSAVVLPGVEAAERAGVPAFLETSAPRNLPFYERLGFTVTADVEVPEGPRTWCMTRKPGA
For the molecule B2, the “NFAT-GFP ASSAY: RS411” value in the assay on RS;411 is “+ (refer to approximately 5%, 10%, 20%, 30%, 40% and 50% GFP positive cells)”. In the assay on RAJI cells, the “NFAT-GFP ASSAY: Raji” value was 5+ (refer to approximately 5%, 10%, 20%, 30%, 40% and 50% GFP positive cells).

B3: 22115 (protein)
chain: MALPVTALLLPLALLLHAARPQVQLVESGGGLVQPGGSLRLSCAASGFTFTNHAMSWVRQAPGKGLELVSSISGNGRTTYYADSVKGRFTISRDISKNTLDLQMNSLRAEDTAVYYCAKDGGETLVDSRGQGTLVTVSSLEDLKNVFPPEVAVFEPSKAEIAHTQKATLVCLATGFYPDHVELSWWVNGKEVHSGVCTDPQPLKEQPALNDSRYCLSSRLRVSATFWQNPRNHFRCQVQFYGLSENDEWTQDRAKPVTQIVSAEAWGRADCGITSASYHQGVLSATILYEILLGKATLYAVLVSALVLMAMVKRKDSRGRAKRSGSGATNFSLLKQAGDVEENPGPTSTMALPVTALLLPLALLLHAARPQVQLVESGGGLVQPGGSLRLSCAASGFTFTNHAMSWVRQAPGKGLELVSSISGNGRTTYYADSVKGRFTISRDISKNTLDLQMNSLRAEDTAVYYCAKDGGETLVDSRGQGTLVTVSSLESGGGGSFEQVQLQQPGAELVKPGASVKMSCKASGYAFSSYWINWMKQKPGQGLEWIGQIYPGDGDTNYNGKFKGRATLTADTSSSTAYMQLSSLTSEDSAVYFCARSITTVVGCAMDYWGQGTSVTVSSTRIQNPDPAVYQLRDSKSSDKSVCLFTDFDSQTNVSQSKDSDVYITDKCVLDMRSMDFKSNSAVAWSNKSDFACANAFNNSIIPEDTFFPSSDVPCDVKLVEKSFETDTNLNFQNLSVIGFRILLLKVAGFNLLMTLRLWSSRAKRSGSGVKQTLNFDLLKLAGDVESNPGPSRGHMTEYKPTVRLATRDDVPRAVRTLAAAFADYPATRHTVDPDRHIERVTELQELFLTRVGLDIGKVWVADDGAAVAVWTTPESVEAGAVFAEIGPRMAELSGSRLAAQQQMEGLLAPHRPKEPAWFLATVGVSPDHQGKGLGSAVVLPGVEAAERAGVPAFLETSAPRNLPFYERLGFTVTADVEVPEGPRTWCMTRKPGA
Take B3: the “NFAT-GFP ASSAY: RS411” value with RS;411 is 2+ (refer to approximately 5%, 10%, 20%, 30%, 40% and 50% GFP positive cells).

B4: 22139 (protein)
chain: MALPVTALLLPLALLLHAARPACEVQLLESGGGLIQPGGSLRLSCAASGFTFSSHAMTWVRQAPGKGLEWVSAISGSGDYTHYADSVKGRFTISRDNSKNTVYLQMNSLRAEDSAVYYCAKDEDGGSLLGHRGQGTLVTVSSGTGGGGSGGGGSGGGGSEFDIQMTQSPSSLSASVGDRVTITCKASDHINNWLAWYQQKPGQAPKLLIYGATTLETGVPSRFSGSGSGTDYTLTISSLQPEDFATYYCQQSWNTPWTFGQGTKLEIKRLEADVSPKPTIFLPSIAETKLQKAGTYLCLLEKFFPDVIKIHWQEKKSNTILGSQEGNTMKTNDTYMKFSWLTVPEKSLDKEHRCIVRHENNKNGVDQEIIFPPIKTDVITMDPKDNCSKDANDTLLLQLTNTSAYYMYLLLLLKSVVYFAIITCCLLRRTAFCCNGEKSRAKRSGSGATNFSLLKQAGDVEENPGPTSMDWIWRILFLVGAATGAHSGPQVQLQESGGGLAQAGGSLRLSCAASGRTFSMGWFRQAPGKEREFVAAITYSGGSPYYASSVRGRFTISRDNAKNTVYLQMNSLKPEDTAVYYCAANPTYGSDWNAENWGQGTQVTVSSGSGGGGSGGGGSGGGGSFEQVQLQQPGAELVKPGASVKMSCKASGYAFSSYWINWMKQKPGQGLEWIGQIYPGDGDTNYNGKFKGRATLTADTSSSTAYMQLSSLTSEDSAVYFCARSITTVVGCAMDYWGQGTSVTVSSTRPHTKPSVFVMKNGTNVACLVKEFYPKDIRINLVSSKKITEFDPAIVISPSGKYNAVKLGKYEDSNSVTCSVQHDNKTVHSTDFEVKTDSTDHVKPKETENTKQPSKSCHKPKAIVHTEKVNMMSLTVLGLRMLFAKTVAVNFLLTAKLFFLRAKRSGSGVKQTLNFDLLKLAGDVESNPGPSRGHMTEYKPTVRLATRDDVPRAVRTLAAAFADYPATRHTVDPDRHIERVTELQELFLTRVGLDIGKVWVADDGAAVAVWTTPESVEAGAVFAEIGPRMAELSGSRLAAQQQMEGLLAPHRPKEPAWFLATVGVSPDHQGKGLGSAVVLPGVEAAERAGVPAFLETSAPRNLPFYERLGFTVTADVEVPEGPRTWCMTRKPGA
In the case of B4, in the assay with RS;411, the “NFAT-GFP ASSAY: RS411” value was 2+ (refer to approximately 5%, 10%, 20%, 30%, 40% and 50% GFP positive cells). In addition, in the assay with RAJI cells, the “NFAT-GFP ASSAY: Raji” value is 2+ (refer to approximately 5%, 10%, 20%, 30%, 40% and 50% GFP positive cells).
